Positions count from the first letter of the chain named. Names and notes keep the numbering of the source.

The chains are these.
B1: 5990 (antibody, V domains shown)
VH: QLQLQESGPGLVKPSETLSLTCTVSGGSISWSSYYWSWIRQPPGKGLEWIGSIYRSGRTYYNPSLKSRVTISVDTSKNQFSLKLSSVTAADTAVYYCARVGHGINYFDLWGRGTLVTVSS
VL: EIVLTQSPATLSLSPGERATLSCRASRSVNSYLAWYQQKPGQAPRLLIYDASKRATGIPARFSGSGSGTDFTLTISSLEPEDFAVYYCQQVYTWPPRTFGGGTKVEIK
notes: anti-BACE1 IgG
B2: 6280 (antibody, V domains shown)
VH: B1 VH with I29T, W31S, S37G, R58S, L65F, N105S
VL: B1 VL with R27Q, N30S, K53N, V91S, Y92L
notes: anti-BACE1 IgG
B3: 6298 (antibody, V domains shown)
VH: B1 VH with S52N, R55Y, R58S, V100L, I104Y
VL: B1 VL with R27Q, N30S, Y36F, K53N, T93V
notes: anti-BACE1 IgG
B4: 6294 (antibody, V domains shown)
VH: B1 VH with W31S, Y34H, S37G, S52M, R55Y, R58S, Y60W, I104V, N105S
VL: B1 VL with R27Q, N30S
notes: anti-BACE1 IgG
B5: 6291 (antibody, V domains shown)
VH: B1 VH with W31S, S37G, S52M, R55Y, R58S, Y60W, I104V, N105S
VL: B1 VL with R27Q, N30S, D50G
notes: anti-BACE1 IgG
B6: 6285 (antibody, V domains shown)
VH: B1 VH with I29T, W31S, S37G, R58S, N105S
VL: B1 VL with R27Q, N30S, K53S, V91S, Y92L
notes: anti-BACE1 IgG
B7: 5987 (antibody, V domains shown)
VH: QVQLVQSGAEVKKPGSSVKVSCKASGGTLSGYAISWVRQAPGQGLEWMGNIIPGFGTANYAQKSQGRVTITADESTSTAYMELSSLRSEDTAVYYCARSGGTRYGMLDVWGQGTMVTVSS
VL: EIVMTQSPATLSVSPGERATLSCRASQSVSSNLAWYQQKPGQAPRLLIYGASTRATGIPARFSGSGSGTEFTLTISSLQSEDFAVYYCQQLFLWPPRTFGGGTKVEIK
notes: anti-BACE1 IgG
B8: 5988 (antibody, V domains shown)
VH: B7 VH
VL: B7 VL with E1G, S30G, F92Y, L93T
notes: anti-BACE1 IgG
B9: 6273 (antibody, V domains shown)
VH: B7 VH with L29F, A33G, S64F, R103K
VL: B7 VL with L33I, F92L
notes: anti-BACE1 IgG
B10: 6272 (antibody, V domains shown)
VH: B7 VH with L29F, A33G, S64F, R103K
VL: B7 VL
notes: anti-BACE1 IgG
B11: 6271 (antibody, V domains shown)
VH: B7 VH with L29I, A33G, S64F, R103K
VL: B7 VL with F92I
notes: anti-BACE1 IgG
B12: 6276 (antibody, V domains shown)
VH: B7 VH with L29F, S30R, F55L, G56S, S64F, R103K
VL: B7 VL with F92I
notes: anti-BACE1 IgG
B13: hu15G11.v5 IgG Ala variant T52A (HVR-L2) (antibody, V domains shown)
VH: EVQLVQSGAEVKKPGASVKVSCKASGYTFTSYWMHWVRQAPGQRLEWIGEINPTNGRTNYIEKFKSRATLTVDKSASTAYMELSSLRSEDTAVYYCARGTRAYHYWGQGTMVTVSS
VL: DIQMTQSPSSLSASVGDRVTITCRASDNLYSNLAWYQQKPGKSPKLLVYDAANLADGVPSRFSGSGSGTDYTLTISSLQPEDFATYYCQHFWGTPLTFGQGTKVEIK
notes: IgG in cell culture supernatant
B14: hu15G11.v5 IgG Ala variant Y59A (HVR-H2) (antibody, name in Kabat numbering, V domains shown)
VH: B13 VH with Y60A
VL: B13 VL with A52T
notes: IgG in cell culture supernatant; Kabat numbers after 52a lie one below the linear count
B15: hu15G11.v5 IgG Ala variant T53A (HVR-H2) (antibody, V domains shown)
VH: B13 VH with T54A
VL: B13 VL with A52T
notes: IgG in cell culture supernatant; also called 15G11.T53A; 15G11.53A
B16: hu15G11.v5 IgG Ala variant Y32A (HVR-H1) (antibody, name in Kabat numbering, V domains shown)
VH: B13 VH with Y32A
VL: B13 VL with A52T
notes: as for B13
B17: hu15G11.v5 IgG Ala variant Y30A (HVR-L1) (antibody, V domains shown)
VH: B13 VH
VL: B13 VL with Y30A, A52T
notes: as for B13
B18: Hu7A4.v5.Fab (Fab, V domains shown)
VH: EVQLVQSGAEVKKPGASVKVSCKASGYTFTDYAMHWVRQAPGQGLEWMGGISTYFGRTNYNQKFKGRVTMTRDTSISTAYMELSRLRSDDTAVYYCARGLSGNYVMDYWGQGTTVTVSS
VL: DIVMTQSPDSLAVSLGERATINCRASESVDSYGNSFMHWYQQKPGQPPKLLIYRASNLESGIPDRFSGSGSGTDFTLTISSLQAEDVAVYYCQQSNEGPPTFGQGTKLEIK
notes: Fab
B19: Hu7A4.v8.Fab (Fab, V domains shown)
VH: B18 VH with A24G, R72V
VL: B18 VL
notes: Fab
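Wherever koff is given: single cycle kinetics with a Fab dilution series, fitted by a one-to-one Langmuir model or a steady state model, KD taken as koff over kon.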
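Wherever kon is given: single cycle kinetics with a Fab dilution series, fitted by a one-to-one Langmuir model or a steady state model, KD taken as koff over kon.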

The first experiment deals with T1, human BACE1 ECD.
T1 construct: analyte of the Octet assay (200 nM) and enzyme of the first short substrate assay; also called human BACE1 extracellular domain
T1 sequence (single chain, as listed by the source limits assumed): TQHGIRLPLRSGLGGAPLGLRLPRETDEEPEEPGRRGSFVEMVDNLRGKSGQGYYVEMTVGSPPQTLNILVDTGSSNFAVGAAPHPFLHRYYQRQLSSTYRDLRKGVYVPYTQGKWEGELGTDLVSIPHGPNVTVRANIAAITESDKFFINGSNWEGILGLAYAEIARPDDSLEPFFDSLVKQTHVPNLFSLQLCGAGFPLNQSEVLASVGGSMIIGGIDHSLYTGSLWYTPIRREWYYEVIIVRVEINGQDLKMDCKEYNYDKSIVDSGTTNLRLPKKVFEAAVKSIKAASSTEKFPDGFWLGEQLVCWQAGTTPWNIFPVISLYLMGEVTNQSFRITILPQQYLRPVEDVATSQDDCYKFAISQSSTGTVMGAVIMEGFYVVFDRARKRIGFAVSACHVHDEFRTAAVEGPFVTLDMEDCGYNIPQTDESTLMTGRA
Description: Octet, pH 5.0.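 Further: antibodies captured on anti-human capture sensor tips, dissociation monitored in PBS with BSA buffer, kinetics fitted with a one-to-one binding model.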
Description: (§1) Anti-BACE1 antibodies were loaded onto anti-human capture (AHC) sensors (tips) followed by 60 seconds baseline in assay buffer. […] Tips were transferred to assay buffer for 5 minutes, 30 minutes, or 120 minutes depending on the off-rate, for off-rate measurement. Assay buffer was either PBS+0.1% BSA, pH 7.5; or PBS+0.1% BSA, pH 5.0. Kinetics were analyzed using a 1:1 binding model.
Take B1: the Kd was under 0.18 nM.

B2 had a Kd of 0.31 nM.

B3 displayed a Kd of 0.32 nM.

In turn, B4 yielded a Kd of under 0.27 nM.

B5 showed an equilibrium dissociation constant (Kd) of under 0.26 nM.

Molecule B6 came in with a Kd of 0.43 nM.

B7 had a Kd of under 0.25 nM.

As for B8, the equilibrium dissociation constant (Kd) is under 0.25 nM.

As to B9, the Kd was under 0.26 nM.

B10: the Kd was under 0.39 nM.

In the case of B11, the Kd was under 0.24 nM.

B12: the Kd is under 0.41 nM.

The target in another experiment is T2, murine BACE1 ECD.
T2 construct: analyte of the Octet assay (200 nM) and enzyme of the first short substrate assay
T2 sequence (single chain, as listed by the source limits assumed): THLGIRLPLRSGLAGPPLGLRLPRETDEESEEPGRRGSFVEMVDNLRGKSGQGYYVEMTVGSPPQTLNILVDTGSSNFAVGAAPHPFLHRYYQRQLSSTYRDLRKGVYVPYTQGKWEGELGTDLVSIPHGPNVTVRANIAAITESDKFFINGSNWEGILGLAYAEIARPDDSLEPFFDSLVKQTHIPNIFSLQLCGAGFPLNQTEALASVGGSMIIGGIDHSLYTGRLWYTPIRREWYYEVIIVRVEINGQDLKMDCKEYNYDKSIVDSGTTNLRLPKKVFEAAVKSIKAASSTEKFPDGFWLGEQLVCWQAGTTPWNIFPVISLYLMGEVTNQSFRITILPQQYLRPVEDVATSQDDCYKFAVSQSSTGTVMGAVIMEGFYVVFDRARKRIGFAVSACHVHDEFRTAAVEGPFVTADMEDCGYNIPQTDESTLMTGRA
Put plainly: Octet, pH 5.0. (In general: In BLI a coated tip is dipped into the sample, and binding shifts an interference pattern.)
Description: as §1
For B1, the Kd was under 0.23 nM.

In turn, B2 came in with a Kd of under 0.31 nM.

Molecule B3 came in with a Kd of 0.4 nM.

The molecule B4 had a Kd of under 0.34 nM.

Molecule B5 came in with a Kd of under 0.3 nM.

B6 yielded a Kd of 0.41 nM. In other words, the sub-nanomolar range.

As to B7, the Kd was under 0.29 nM.

Turning to B8, the Kd was under 0.29 nM.

B9 gave a Kd of under 0.4 nM.

On to B10, for which the Kd was under 0.4 nM.

Take B11: the Kd was under 0.31 nM.

B12 displayed a Kd of under 0.54 nM.

The target of a further experiment is T1, human BACE1 ECD. Put plainly: Octet, pH 7.5.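 Further: antibodies captured on anti-human capture sensor tips, dissociation monitored in PBS with BSA, Kd obtained from kinetic fit to a one-to-one binding model.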
Description: as §1
Consider B1, for which the Kd was under 0.18 nM.

Turning to B2, the Kd was under 0.32 nM.

Take B3: the Kd was found to be 0.39 nM.

B4: the Kd was under 0.3 nM.

Molecule B5 came in with a Kd of under 0.28 nM.

On to B6, for which the affinity, expressed as Kd, was 0.32 nM.

For B7, the dissociation constant Kd was under 0.32 nM.

In turn, B8 gave a Kd of under 0.29 nM.

B9: the Kd is under 0.39 nM.

B10 had a Kd of under 0.87 nM.

In turn, B11 showed a Kd of under 0.31 nM.

With B12, the Kd was under 0.59 nM.

In a further experiment the target is T2, murine BACE1 ECD. Description: Octet, pH 7.5.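 Further: antibodies captured on anti-human capture sensor tips, dissociation monitored in PBS with BSA, Kd obtained from kinetic fit to a one-to-one binding model.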
Description: as §1
B1 showed a dissociation constant Kd of under 0.18 nM.

As to B2, the Kd was under 0.32 nM.

The molecule B3 had a Kd of 0.46 nM. That is a sub-nanomolar value.

B4 gave a Kd of under 0.3 nM.

The molecule B5 yielded a Kd of under 0.26 nM.

Take B6: the dissociation constant Kd is under 0.28 nM.

The molecule B7 registered a Kd of under 0.29 nM.

B8 displayed a Kd of under 0.29 nM.

As to B9, the Kd is under 0.39 nM.

As for B10, the Kd is under 0.41 nM.

B11 had a Kd of under 0.31 nM.

B12 returned a Kd of under 0.62 nM.

Another experiment concerns the target T3, cyno TfR extracellular domain (analogous construct to human TfR ecd) (cynomolgus monkey, UniProt Q5RDH6 87-760 (Pongo abelii entry)).
T3 construct: also called cynoTfR ecd
T3 chain: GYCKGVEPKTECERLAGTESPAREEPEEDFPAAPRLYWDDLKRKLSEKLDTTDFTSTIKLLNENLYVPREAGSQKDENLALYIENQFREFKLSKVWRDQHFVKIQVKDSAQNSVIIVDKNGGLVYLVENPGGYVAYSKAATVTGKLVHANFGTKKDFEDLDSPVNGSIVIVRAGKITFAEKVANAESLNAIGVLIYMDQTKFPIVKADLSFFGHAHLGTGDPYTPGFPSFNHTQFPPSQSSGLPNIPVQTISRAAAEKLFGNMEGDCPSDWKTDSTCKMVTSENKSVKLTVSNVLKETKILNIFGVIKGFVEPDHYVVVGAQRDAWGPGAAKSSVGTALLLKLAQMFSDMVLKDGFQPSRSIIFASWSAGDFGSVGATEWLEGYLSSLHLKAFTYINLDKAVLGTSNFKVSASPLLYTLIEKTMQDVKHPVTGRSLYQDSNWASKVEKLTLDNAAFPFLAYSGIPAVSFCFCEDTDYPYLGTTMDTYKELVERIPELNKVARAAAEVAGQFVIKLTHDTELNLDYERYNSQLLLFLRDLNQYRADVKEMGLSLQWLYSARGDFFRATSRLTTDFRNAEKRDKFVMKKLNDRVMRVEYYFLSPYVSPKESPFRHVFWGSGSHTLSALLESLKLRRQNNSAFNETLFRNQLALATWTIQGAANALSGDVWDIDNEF
Description: ELISA, TfR-coated plate, IgG in culture supernatant.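 Further: human or cynomolgus TfR coated at 2 µg/mL, supernatant IgG titrated in 1:5 steps for 1 h, bound antibody read with HRP anti-human Fcγ and TMB.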 A general note: ELISA stands for enzyme-linked immunosorbent assay.
Description: (§2) The Hu/Cy binding ELISA was performed in maxisorp plates coated with 2 μg/ml of purified human or cyno TfR in PBS at 4° C. overnight. Plates were washed with PBS/0.05% Tween 20 and blocked using Superblock blocking buffer in PBS (Thermo Scientific, Hudson, N.H.). Cell culture supernatants containing the expressed Ala scan variant IgGs were serially diluted 1:5 and added to the wells for 1 h. Plates were washed with PBS/0.05% Tween 20 and 1:1000 diluted HRP-Goat-anti human Fcγ (Jackson ImmunoResearch) was added the plate and incubated for 1 hour at room temperature. Plates were washed with PBS/0.05% Tween 20 and detected using TMB substrate (BioFX Laboratories, Owings Mills).
Regarding B13, the EC50 amounted to 0.3 ng/mL.

As for B14, the midpoint of the response, the EC50, lay at 0.7 ng/mL.

As for B15, the 50% effective concentration (EC50) amounted to 0.7 ng/mL.

In turn, B16 returned an EC50 of 1.4 ng/mL.

On to B17, for which the EC50 was 1 ng/mL.

A further experiment concerns the target T4, human TfR extracellular domain with N-terminal His tag (human, UniProt P02786 89-760).
T4 construct: Biotinylated in some assays; also called huTfR; HuTfR
The experiment is described as above.
Description: as §2
On to B13, for which the EC50 turned out to be 0.2 ng/mL.

For B14, the EC50 was found to be 0.3 ng/mL.

B15: a half-maximal effect (EC50) was put at 0.3 ng/mL.

For B16, the EC50 is 0.4 ng/mL.

On to B17, for which a half-maximal response (EC50) required 0.3 ng/mL.

The target in another experiment is T4, human TfR extracellular domain with …. Description: SPR, TfR captured by anti-His, Fab injected. (In SPR one partner is held on a chip, and binding of the other changes the refractive index at the surface.)
Target sequence in this assay (P02786 89-760 G142S): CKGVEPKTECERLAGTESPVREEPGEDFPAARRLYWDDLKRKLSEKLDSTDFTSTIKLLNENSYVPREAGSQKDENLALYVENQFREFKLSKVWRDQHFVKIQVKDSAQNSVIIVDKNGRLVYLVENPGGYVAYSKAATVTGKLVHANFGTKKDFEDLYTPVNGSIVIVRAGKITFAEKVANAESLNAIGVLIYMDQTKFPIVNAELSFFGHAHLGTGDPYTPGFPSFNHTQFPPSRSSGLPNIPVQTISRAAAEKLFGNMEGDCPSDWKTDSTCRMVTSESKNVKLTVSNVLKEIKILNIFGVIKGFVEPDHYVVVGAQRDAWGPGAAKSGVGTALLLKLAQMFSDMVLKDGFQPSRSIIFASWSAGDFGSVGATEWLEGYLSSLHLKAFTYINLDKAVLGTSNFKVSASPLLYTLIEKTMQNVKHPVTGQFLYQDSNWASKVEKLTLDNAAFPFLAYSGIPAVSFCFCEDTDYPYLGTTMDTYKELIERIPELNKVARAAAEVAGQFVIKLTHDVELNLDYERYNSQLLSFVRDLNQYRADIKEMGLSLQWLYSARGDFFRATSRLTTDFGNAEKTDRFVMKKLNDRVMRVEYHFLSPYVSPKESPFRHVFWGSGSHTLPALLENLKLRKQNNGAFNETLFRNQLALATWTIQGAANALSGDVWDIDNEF
B18: the affinity, expressed as Kd, was 0.686 nM; the koff came out at 0.00153 s⁻¹; the kon came to 2.24e+06 M⁻¹ s⁻¹.

Turning to B19, binding was put at a Kd of 1.15 nM, the koff amounted to 0.00107 s⁻¹ and the kon amounted to 928000 M⁻¹ s⁻¹.

For a further experiment, the target named is BACE1 in primary mouse cortical neurons (mouse, UniProt P56818 46-501). Put plainly: cell-based or functional assay.
BACE1 in primary mouse cortical neurons, sequence (P56818 46-501): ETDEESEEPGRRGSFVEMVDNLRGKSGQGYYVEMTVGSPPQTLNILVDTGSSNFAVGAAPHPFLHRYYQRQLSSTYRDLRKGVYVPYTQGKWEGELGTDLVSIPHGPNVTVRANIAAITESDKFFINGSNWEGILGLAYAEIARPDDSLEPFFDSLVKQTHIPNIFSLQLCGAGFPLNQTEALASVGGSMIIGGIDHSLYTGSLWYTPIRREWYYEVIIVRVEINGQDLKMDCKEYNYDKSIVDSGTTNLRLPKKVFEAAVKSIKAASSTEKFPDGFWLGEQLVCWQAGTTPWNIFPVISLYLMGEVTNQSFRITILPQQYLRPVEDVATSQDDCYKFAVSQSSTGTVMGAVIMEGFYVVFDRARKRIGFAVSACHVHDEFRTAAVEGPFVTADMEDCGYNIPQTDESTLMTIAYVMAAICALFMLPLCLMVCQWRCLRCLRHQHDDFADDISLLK
Consider B1, for which the “IC50, Abeta x-40 in mouse cortical neurons” value worked out at 0.53 nM and the “maximal % inhibition of Abeta x-40” value was 61%.

Turning to B2, the “IC50, Abeta x-40 in mouse cortical neurons” value was determined as 8.29 nM and the “maximal % inhibition of Abeta x-40” value amounted to 65%.

B3: the “IC50, Abeta x-40 in mouse cortical neurons” value amounted to 1.95 nM and the “maximal % inhibition of Abeta x-40” value was determined as 67%.

With B4, the “IC50, Abeta x-40 in mouse cortical neurons” value was 3.53 nM and the “maximal % inhibition of Abeta x-40” value was 59%.

Turning to B5, the “IC50, Abeta x-40 in mouse cortical neurons” value was found to be 1.41 nM and the “maximal % inhibition of Abeta x-40” value stood at 68%.

Regarding B6, the “IC50, Abeta x-40 in mouse cortical neurons” value amounted to 15.4 nM and the “maximal % inhibition of Abeta x-40” value came to 57%.

Take B7: the “IC50, Abeta x-40 in mouse cortical neurons” value was found to be 7.2 nM and the “maximal % inhibition of Abeta x-40” value came out at 69%.

For the molecule B8, the “IC50, Abeta x-40 in mouse cortical neurons” value is 3.55 nM and the “maximal % inhibition of Abeta x-40” value was 75%.

Regarding B9, the “IC50, Abeta x-40 in mouse cortical neurons” value is 5.71 nM and the “maximal % inhibition of Abeta x-40” value is 82%.

Regarding B10, the “IC50, Abeta x-40 in mouse cortical neurons” value came to 43.6 nM and the “maximal % inhibition of Abeta x-40” value worked out at 82%.

On to B11, for which the “IC50, Abeta x-40 in mouse cortical neurons” value was 1.77 nM and the “maximal % inhibition of Abeta x-40” value came to 83%.

On to B12, for which the “IC50, Abeta x-40 in mouse cortical neurons” value is 7.4 nM and the “maximal % inhibition of Abeta x-40” value worked out at 81%.

The Kd is the concentration at which binding is half-saturated. High values mean lower affinity, low ones higher affinity. Broadly, the EC50 is the concentration giving half of the maximal effect. The low end stands for greater potency, the high end for weaker potency. One may read the koff as a measure of how fast the partners let go of each other. Read a high koff as fast dissociation. For orientation: kon means the second-order rate constant of association.

(Values after US20180057604A1 (Genentech, published 2018).)
